Assay results from US12291578B2, “Anti-matrix metalloproteinase 7 (MMP-7) inhibitory antibody and uses thereof” (Yeda Research and Development Co. Ltd., priority 2019, dated 2025).
“Also recorded” adds a separate entry of the source. Where two headings read alike, the source gives them in different places.

B1: GSM-192 Fab: Fab fragment of GSM-192 obtained by papain digestion (antibody, V domains shown)
VL: DIVTQSPASLAVSLGQRATISCRASESFDSYGNTFVHWYQQKPGQPPKLLIYLVSNLESGVPAGFRGRGSRTDFTLTIDPVEADDAATYYCQQNNEDPYTFGGGTKLEIKRA
VH: EVQLQQSGPELVKPGASVKIPCKASGYTFTDYNMDWMKQSHGKSLEWIGHINPNNGGTFYNQKFKDKATFIVDKSSNTAYMELRSLTSEDTAVYFCARGGGLRRGPFAYWGQGTLVTVS

How the values were obtained:
AsPC-1 cells [1] = experiment: Gemcitabine co-treatment, MTT cell death assay; format: cell-based; conditions: Homo sapiens, ASPC1, 72 h
Procedure: Gemcitabine co-treatment: 10,000 AsPC-1 cells/well were seeded into 96 well flat bottom plate and incubated overnight at in a humidified incubator at 37° C. with 5% CO2. Media in wells were replaced by serum free RPMI medium containing 2.33 μM GSM-192 or PBS and 0.05, 0.1, 0.5, 1, 5, 10, 40 and 80-μM gemcitabine. The plates were further incubated for 72 hours in a humidified incubator at 37° C. with 5% CO2. MTT solutions (M5655 SIGMA) was added at 10% of total culture volume (0.5 mg/ml MTT in RPMI/IMDM without phenol red) and after 3 hours incubation, plate was washed with PBS and solubilized using MTT solvent (0.1 N HCl in anhydrous isopropanol). The read out was obtained at […]. Cell death data was plotted as a function of the log of Gemcitabine concentration and fitted on a variable slope sigmoidal regression model (GraphPad prism 8.3.0). Further, an average of IC50 from 3 experimental repeats and corresponding standard deviation was calculated.

FasL in AsPC-1 cells = experiment: Western blot of FasL expression in cell lysates; format: cell-based, human; conditions: AsPC-1 cell lysates, 24 hours, sub lethal concentrations
Procedure: Western Blots: Treated cells were lysed with RIPA buffer containing protease inhibitors and shaken intermittently while stored in ice for 30 min. The debris was removed by centrifugation at 14,000×g and supernatant was used for BCA protein determination assay. Alternatively, culture supernatants were concentrated at least 10 times using 0.2 μm centricons. Once normalized to equal protein content, sample buffer was added and heated for 3 minutes at 95° C. The denatured samples were centrifuged for 5 min at 14,000×g before 25 μL was loaded onto SDS page gel and standard blotting procedures were followed (General Protocol for Western Blotting, BioRad bulletin 6376). Primary Abs used were MMP-7 (abcam, ab5706), Fas-L (abcam, ab15285), α Tubulin Ab (sc31779).
Anti LOXL-2 (Lysyl Oxidase like 2) mAb33, produced in a similar pipeline was used as an isotype control. […] To test for molecular markers of apoptosis, Fas ligand expression was analysed by Western blot analysis. AsPC-1 cells were treated with GSM-192 Fab for 24 hours at sub lethal concentrations.

MMP-9 = MMP-9 (Homo sapiens, UniProt P14780); experiment: Enzymatic activity of related MMPs (fluorogenic peptide); format: biochemical; conditions: in vitro
Chain of MMP-9 (P14780 94-707, species assumed): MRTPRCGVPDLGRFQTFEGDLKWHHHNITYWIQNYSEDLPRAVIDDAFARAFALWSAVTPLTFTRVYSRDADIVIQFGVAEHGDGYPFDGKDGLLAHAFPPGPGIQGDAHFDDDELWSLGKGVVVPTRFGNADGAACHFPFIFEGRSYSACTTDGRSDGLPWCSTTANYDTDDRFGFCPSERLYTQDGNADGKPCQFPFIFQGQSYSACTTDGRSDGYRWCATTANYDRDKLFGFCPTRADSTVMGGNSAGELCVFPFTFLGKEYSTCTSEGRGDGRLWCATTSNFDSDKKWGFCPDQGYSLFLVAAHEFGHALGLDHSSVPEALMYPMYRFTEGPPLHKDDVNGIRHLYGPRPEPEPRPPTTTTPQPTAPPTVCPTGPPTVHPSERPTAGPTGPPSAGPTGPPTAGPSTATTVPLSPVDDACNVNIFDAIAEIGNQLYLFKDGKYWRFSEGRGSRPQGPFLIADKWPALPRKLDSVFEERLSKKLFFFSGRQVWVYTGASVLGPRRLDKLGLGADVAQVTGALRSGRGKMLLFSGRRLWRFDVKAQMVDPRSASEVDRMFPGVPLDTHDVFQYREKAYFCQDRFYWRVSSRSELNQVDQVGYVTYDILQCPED
Procedure: (§1) MMP-7 enzymatic kinetic assay: The enzymatic activity of MMP-7 in the presence of GSM-192 Fab was measured at 37° C. by monitoring the hydrolysis of fluorogenic peptide Mca-Pro-Leu-Gly-Leu-Dpa-Ala-Arg-NH2 (SEQ ID NO: 10) at λex=340 nm and […] as described previously^30. A range of different concentrations of GSM-192 Fab (0-200 nM) were incubated with 10 nM of MMP-7 in 50 mM Tris-HCl buffer (pH 7.5 at 37° C.), 100 mM NaCl, 5 mM CaCl2, and 0.05% Brij-35 for 2 h at 37° C. The enzymatic reaction was initiated by addition of the fluorogenic peptide to a final concentration of 10 μM. Fluorescence was recorded immediately and continuously for 30 min.
(§2) Remarkably, considering that the immunization booster also included the common zinc motif, the antibody is fully selective for MMP-7. The effect of GSM-192 Fab fragment on the enzymatic activity of human MMP-7 was examined in vitro using a short fluorogenic peptide according to a standard protocol. The enzymatic activity of recombinant active MMP-7 was measured in the presence of increasing concentrations of the Fab fragment of GSM-192. […] Simultaneously the effect of the antibody on catalytic activity of related MMPs was measured.

MMP-12 = MMP-12 (Homo sapiens, UniProt P39900); experiment: as above; format: biochemical; conditions: in vitro
Chain of MMP-12 (P39900 106-470): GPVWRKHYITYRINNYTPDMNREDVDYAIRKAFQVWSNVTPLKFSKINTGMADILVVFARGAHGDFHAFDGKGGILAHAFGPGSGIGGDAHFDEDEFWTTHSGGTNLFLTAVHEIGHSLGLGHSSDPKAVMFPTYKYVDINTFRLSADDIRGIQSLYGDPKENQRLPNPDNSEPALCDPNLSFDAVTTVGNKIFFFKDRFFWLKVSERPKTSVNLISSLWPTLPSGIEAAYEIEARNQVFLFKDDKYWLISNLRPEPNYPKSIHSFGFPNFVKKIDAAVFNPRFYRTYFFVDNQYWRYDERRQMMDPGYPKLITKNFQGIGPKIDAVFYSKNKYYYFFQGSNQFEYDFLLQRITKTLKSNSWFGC
Procedure: as §1, §2

MMP-14 = MMP-14 (Homo sapiens, UniProt P50281); experiment: as above; format: biochemical; conditions: in vitro
Procedure: as §1, §2

AsPC-1 cells [2] = experiment: FACS Annexin-V apoptosis detection assay; format: cell-based, human; conditions: AsPC-1, 24 h, increasing dose
Procedure: FACS Annexin-V apoptosis detection assay: 70% confluent cells in 6 cm plates were treated with sterile GSM-192 Fab fragment/control anti LOXL-2 Fab fragment for 24 h and prepared for FACS using the Annexin-V FITC apoptosis detection kit (E Biosciences 88-8005-72) as described previously^53. The FACS acquisition was done using FACS LSR-II machine in Cell Quant software (Becton Dickinson) and further analysis on FlowJo software (Treestar, Inc., San Carlos, Calif.).

Molecule	IC50 (AsPC-1 cells [1]; GEM+PBS group, 72 hours) [nM]	IC50 (AsPC-1 cells [1]; co-treatment with 2.33 uM GSM-192, 72 hours, read-out: IC50 of GEM) [nM]	FasL expression (FasL in AsPC-1 cells)	FasL expression (FasL in AsPC-1 cells; listed as anti MMP-7 Fab)	effect on catalytic activity of MMP-9 (MMP-9)	effect on catalytic activity of MMP-12 (MMP-12)	effect on catalytic activity of MMP-14 (MMP-14)	Annexin V related apoptosis (AsPC-1 cells [2])
Nc1ccn([C@@H]2O[C@H](CO)[C@@H](O)C2(F)F)c(=O)n1 [GEM, gemcitabine]	127 ± 40.5	14.2 ± 1.52						
B1			increase of Fas ligand (FasL) expression	overall increase in FasL levels	not affected	not affected	only negligibly affected	induce cell death via apoptosis; also recorded: increased Annexin V related apoptosis
